Data set [1] is described as follows: Biodistribution in non-tumor bearing CD-1 mice at 4 h post-injection (FIGS. 12-13). The conditions noted are these: female, CD-1, mouse, in vivo, total radioactivity. The procedure:
FIG. 12 is a bar graph 1200 showing the biodistribution (% ID/g)(y-axis) for various organs (x-axis). The biodistribution of ^203Pb-TCMCTATE and ^203Pb-DOTAMTATE is shown for non-tumor bearing mice done at 4 h post-injection. The biodistribution studies of ^203Pb-TCMCTATE and ^203Pb-DOTAMTATE are completed in non-tumor bearing mice (CD-1 mice, Female, 20 g wt. 4-5 weeks) at 4 h post-injection of the cancer targeting compositions.
In comparison, FIG. 13 is a graph 1300 (similar to the graph of FIG. 12), except that the biodistribution study is of ^203Pb-acetate (a lead radioisotope without a chelator or targeting moiety) in non-tumor bearing mice done at 4 h post-injection. A higher accumulation of isotope is observed in blood, kidney, liver and lung compared to the chelated radioisotopes of FIG. 12. The biodistribution studies of the ^203Pb-acetate indicate retention of the isotope in bone marrow, blood and liver after 4 h post-injection.

Data set [2] in a line: Radiochemical stability by radio-HPLC after labeling, incubation in PBS buffer. The conditions noted are these: room temperature.
Data set [3] in a line: ^203Pb-DOTAMTATE biodistribution in athymic nude mice (FIG. 16). The format is in vivo. The conditions noted are these: female athymic nude mice, 10 μCi iv, 4, 24 and 48 hours. The procedure:
FIG. 16 is a bar graph 1600 showing the biodistribution results (% ID/g) of ^203Pb-DOTAMTATE in various organs (y-axis). The biodistribution data are acquired at 4 h, 24 h, and 48 h post-injection. […] There is also accumulation of the composition observed in kidneys and bladder due elimination of the composition through renal clearance. As may be seen from these figures, the composition is washed out from all measured organs over time in non-tumor bearing mice.
Female athymic nude mice (˜20 g) are injected with a single dose of ^203Pb-DOTAMTATE. Specifically, 10 μCi of ^203Pb-DOTAMTATE is diluted in PBS and 100 μl is administered to the mice via intravenous injection. The animals are sacrificed at predetermined time points of 4 hr, 24 hours and 48 hours post drug injection. Tissues are collected from each animal and evaluated for amount of radioactive material in each organ by auto gamma counter. Specifically, organs are harvested, weighed and transferred to polypropylene tubes. The tubes are placed in a calibrated Wizard2 γ-counter (PerkinElmer, Shelton, Conn.) and counted for three minutes (204-274 keV). A standard consisting of one-twentieth of the injection volume is counted with each time point. The background is automatically subtracted from the counts. The standard is also used for decay correction. % ID/g is calculated for each organ collected.

Data set [4] in a line: Dosimetry and bio-distribution of ^203Pb-DOTAMTATE in patients with somatostatin expressing neuroendocrine tumors (SPECT-CT). Type of data set: in vivo, human. The conditions noted are these: human, in vivo. The procedure: Total of 6 patients are enrolled in the first-in-human open-label, single-dose, dosimetry and bio-distribution of ^203Pb-DOTAMTATE.
All patients (1 female and 5 male) receive an average dose of 4.94 (4.66-5.26) mCi of ^203Pb-DOTAM-TATE and undergo 1 hour, 4 hour, 24 hour and 48 hour post injection SPECT-CT scans. Ethnicity of all 6 patients is Caucasian.
Pharmacokinetic data from ^203Pb-DOTAMTATE imaging are used to calculate the absorbed dose from ^203Pb-DOTAMTATE imaging. The data is then extrapolated to calculate the expected tissue absorbed doses following the administration of ^212Pb-DOTAMTATE for future Targeted Alpha particle Therapy (TAT).

Data set [5] can be described thus: Side by side biodistribution of ^203Pb- and ^212Pb-DOTAMTATE in CD-1 mice (FIG. 32). The format is in vivo. The conditions noted are these: female CD-1 mice, 10 μCi iv, 4 hr and 24 hours. The procedure: Female CD-1 mice (˜20 g) are injected with a single dose of ^203Pb-DOTAMTATE or ^212Pb-DOTAMTATE. Specifically, 10 μCi of ^203Pb-DOTAMTATE or ^212Pb-DOTAMTATE is diluted in saline and 100 μl is administered to the mice via intravenous injection. The animals are sacrificed at predetermined time points of 4 hr and 24 hours post drug injection. Tissues are collected from each animal and evaluated for amount of radioactive material in each organ by auto gamma counter. Specifically, organs are harvested, weighed and transferred to 12×55 mm polypropylene tubes. The tubes are placed in a calibrated Wizard2 γ-counter (PerkinElmer, Shelton, Conn.) and counted for three minutes (204-274 keV). A standard consisting of one-twentieth of the injection volume is counted with each time point. The background is automatically subtracted from the counts. The standard is also used for decay correction. % ID/g is calculated for each organ collected, wherein “% ID” means percent injection dosage.

Data set [6] is described as follows: in vivo. Further details: species or system mice. The procedure: ^212Pb-DOTATOC is prepared based on activity needed at time of injection. 4.1 ng of peptide per 10 μCi of ^212Pb into a tube is added. The mixture is incubated for 10 minutes at 50° C. with shaking. ITLC (Instant thin layer chromatography) is used to verify that chelation is >95%. 100 μl of ^212Pb-DOTATOC is intravenously injected into the tail of each mouse. An auto gamma counter is used to determine the counts of each organ and control tube.

Where [7] appears, read: female, CD-1, mouse, iv, 10 uCi, total radioactivity.

Some results are limits rather than exact numbers.

As to `C[C@@H](O)[C@H](NC(=O)[C@@H]1CSSC[C@H](NC(=O)[C@@H](Cc2ccccc2)NC(=O)CN2CCN(CC(N)=O)CCN(CC(N)=O)CCN(CC(N)=O)CC2)C(=O)N[C@@H](Cc2ccc(O)cc2)C(=O)N[C@H](Cc2c[nH]c3ccccc23)C(=O)N[C@@H](CCCCN)C(=O)N[C@@H]([C@@H](C)O)C(=O)N1)C(=O)O` [^203Pb-DOTAMTATE, ((4R,7S,10S,13R,16S,19R)-13-((1H-indol-3-yl)methyl)-10-(4-aminobutyl)-16-(4-hydroxybenzyl)-7-((R)-1-hydroxyethyl)-6,9,12,15,18-pentaoxo-19-((R)-3-phenyl-2-(2-(4,7,10-tris(2-amino-2-oxoethyl)-1,4,7,10-tetraazacyclododecan-1-yl)acetamido)propanamido)-1,2-dithia-5,8,11,14,17-pentaazacycloicosane-4-carbonyl)-L-threonine chelated to M, metal not drawn], the tissue uptake at 4 h in data set [1] (kidney retention) turned out to be 9.79 ± 2.9 %ID/g. The tissue uptake at 4 h in data set [1] (retention in other organs (than kidneys)) was less than 2 %ID/g. Also, the “radiochemical stability (radiochemical yield, no free ^203Pb peak in radio-HPLC)” value in data set [2] (up to at least 24 h post-labeling) was not below 98%. The organ uptake entry in data set [3] was “high initial uptake of the drug in the pancreas and kidneys that continues to decrease over time”. Further, in data set [4], the “absorbed dose, kidneys, average, for ^212Pb” value is reported as 19 mGy/MBq; the “absorbed dose, liver, average, for ^212Pb” value came to 17 mGy/MBq; the “dose to bone marrow” value is on record as 1.6 Gy; the “dose to heart wall” value is 3.7 Gy. For the same compound, in data set [4], the dose to lungs worked out at 2.5 Gy, the “dose to osteogenic cells” value stood at 0.5 Gy and the dose to spleen was determined as 31 Gy. Also, the “organ uptake compared with ^212Pb-DOTAMTATE in all critical organs” value in data set [5] is “not significantly different”.

With `C[C@@H](O)[C@H](NC(=O)[C@@H]1CSSC[C@H](NC(=O)[C@@H](Cc2ccccc2)NC(=S)Nc2ccc(C[C@H]3CN(CC(N)=O)CCN(CC(N)=O)CCN(CC(N)=O)CCN3CC(N)=O)cc2)C(=O)N[C@@H](Cc2ccc(O)cc2)C(=O)N[C@H](Cc2c[nH]c3ccccc23)C(=O)N[C@@H](CCCCN)C(=O)N[C@@H]([C@@H](C)O)C(=O)N1)C(=O)O` [^203Pb-TCMCTATE, ((4R,7S,10S,13R,16S,19R)-13-((1H-indol-3-yl)methyl)-10-(4-aminobutyl)-16-(4-hydroxybenzyl)-7-((R)-1-hydroxyethyl)-6,9,12,15,18-pentaoxo-19-((R)-3-phenyl-2-(3-(4-(((S)-1,4,7,10-tetrakis(2-amino-2-oxoethyl)-1,4,7,10-tetraazacyclododecan-2-yl)methyl)phenyl)thioureido)propanamido)-1,2-dithia-5,8,11,14,17-pentaazacycloicosane-4-carbonyl)-L-threonine chelated to M, metal not drawn], the tissue uptake at 4 h in data set [1] (non-tumor bearing CD-1 mice, 4 h post-injection, read-out: kidney retention) was 23.5 ± 1.54 %ID/g; in data set [1] (non-tumor bearing CD-1 mice, 4 h post-injection, read-out: retention in other organs (than kidneys)) it was less than 2 %ID/g. Moreover, in data set [2] (up to 18 h post-labeling), the “radiochemical stability (radio-HPLC)” value is not below 96%.

In the case of `C[C@@H](O)[C@@H]1NC(=O)[C@H](CCCCN)NC(=O)[C@@H](Cc2c[nH]c3ccccc23)NC(=O)[C@H](Cc2ccc(O)cc2)NC(=O)[C@@H](NC(=O)[C@@H](Cc2ccccc2)NC(=O)CN2CCN(CC(=O)O)CCN(CC(=O)O)CCN(CC(=O)O)CC2)CSSC[C@@H](C(=O)N[C@H](CO)[C@@H](C)O)NC1=O` [^212Pb-DOTATOC, metal not drawn], in data set [6] (setting [7]), the tissue uptake at 0.5 h was found to be 19 %ID/g and the tissue uptake at 4 h was found to be 22 %ID/g. Besides, in data set [6] (mouse), the “drug in all other organs” value is “nearly undetectable”.

Source of the values: patent US11541133B2, “Treatment of cancer cells overexpressing somatostatin receptors using ocreotide derivatives chelated to radioisotopes” (RADIOMEDIX INC., priority 2017, dated 2023).
